Assay: label from the status in PepcDB records
With “MSLSSPNILLTRIDNRLVHGQVGVTWTSTIGANLLVVVDDVVANDDIQQKLMGITAETYGFGIRFFTIEKTINVIGKAAPHQKIFLICRTPQTVRKLVEGGIDLKDVNVGNMHFSEGKKQISSKVYVDDQDLTDLRFIKQRGVNVFIQDVPGDQKEQIPDEGHHHHHH” the protein production was “not failed”. With “MSLSTGATIVIDLGKTLSKVSLWDLDGRMLDRQVRPSIPLEIDGIRRLDAPDTGRWLLDVLSRYADHPVTTIVPVGHGAGIAALTDGRLAFPPLDYEQSIPEAVMADYRSQRDPFARTGSPALPDGLNIGSQLWWLDQLHPDVMANATLLPWAQYWAWFLTGRAVSEVTSLGCHSDLWDPQDGDFSPMAKRLGWAARFAPIVRAGDTVGALLPAIAERTGLSPDVQVLAGLHDSNAALLAARGFAEIADNEATVLSTGTWFIAMRLPATPVDTATLPEARDCLVNVDVHGRPVPSARFMGGREIETLIEIDTRRVDIKPDQPALLAAVPEVLRHGRMILPTLMRGFGPYPHGRFAWINRPEDWFERRAAACLYAALVADTALDLIGSTGRILVEGRFAEADVFVRALASLRPDCAVYTANAHNDVSFGALRLIDPGLRPQGELVRIEPLDTGSWADLDTYRNRWQAEVEAAKVEEGHHHHHH” the protein production was “not failed”. For “MSLSTMLVAEDLSAVGGISLSSALPVLTAMQYDVAALPTSLLSTHTSGYGTPAVVDLSTWLPQVFAHWTRAQLHFDQALIGYVGSVALCQQITTYLEQQTLSLLVVDPVLGDLGQLYQGFDQDYVAAMRQLIQQADVILPNTTEAALLTGAPYQVTPDLEVILPALQAQLKTGAHAVITDVQRADQIGCAWLDEAGHVQYCGARRLPGHYNGTGDTLAAVIAGLLGRGYPLAPTLARANQWLNMAVAETIAQNRTDDRQGVALGDLLQAILALNEGHHHHHH”, the protein production was “not failed”. In the case of “MSLSYVLPTLTYSLAASTLGLLQAIPGAFTGFRHTDSDSARGLLLGIFILTVSALLTLAVSAVFWLASFTLFRVLSRYREYAADRGAVAITGDPAALASALATIDDEMAAAPDHDLRAQDGGLDALYIAPIDETQFKDAPDFVANDVFPQTHPPTEARIERLEAMATEGPT”, the protein production is reported as “failed”. For “MSLTASYETIKARLDGTVLSATFNAPPMNLIGPEVVRDLVALLEELAHPTAPRVVIFDSADADFFFPHVDMTKVPEYTAEAAKAGGPGDASLGMLFRKLSQLPAVTIAKLRGRARGAGSEFLLACDMRFASRENAILGQPEVGIGAPPGAGAIQHLTRLLGRGRALEAVLTSSDFDADLAERYGWVNRAVPDAELDEFVAGIAARMSGFPRDALIAAKSAINAISLPAPAEVRADAALFQQLVRGEKVQQRTAELFKQGFQTRGATELDLGDALGHLKAVDEGHHHHHH”, the protein production was “not failed”. With “MSLTGRAFAIPLRTRFRGITVREGMLVRGAAGWGEFSPFAEYGPRECARWWAACYEAAELGWPAPVRDTVPVNATVPAVGPEEAARIVASSGCTTAKVKVAERGQSEANDVARVEAVRDALGPRGRVRIDVNGAWDVDTAVRMIRLLDRFELEYVEQPCATVDELAEVRRRVSVPIAADESIRRAEDPLRVRDAEAADVVVLKVQPLGGVRAALRLAEECGLPVVVSSAVETSVGLAAGVALAAALPELPYACGLATLRLLHADVCDDPLLPVHGVLPVRRVDVSEQRLAEVEIDPAAWQARLAAARAAWEQVEREPGPEGHHHHHH” the protein production was “not failed”. With “MSLTIKNSLGQSHDYIKMFVKEGDTVVDATCGNGNDTAFLASLVGENGRVFGFDIQDKAIANTTKKLTDLNLIDRVTLIKDGHQNMDKYIDCPVKAVMFNLGYLPSGDHSISTRPETTIQALSKAMELLVTGGIITVVIYYGGDTGFEEKEKVLEFLKGVDQKKFIVQRTDFINQANCPPILVCIEKISEGHHHHHH” the protein production was “not failed”. In the case of “MSLTINVGLLVDETGPTSDVGKGYSLGAELAFKYFNEKGIYTKDGVRVNINYIKRDYAYNPTTAEEYYREFRDRYGVIAIIGWGTADTEKLSDQVDTDKITYISASYSAKLLVKPFNFYPAPDYSTQACSGLAFLASEFGQGKLALAYDSKVAYSRSPIGAIKKAAPSLGLQVVGDYDLPLRATEADAERIAREMLAADPDYVWCGNTISSCSLLGRAMAKVGLDAFLLTNVWGFDERSPQLIGEGGYGKVFGISPFIYPMFGQDVEGIQTIFEAARMNGVSEDQINLRVVQGFVNVWLLIKAIESVTSQDLQERGGEALKEALEANTFDLGGITADTIDYEPGFHLAYRKVFIIKLGENGELQLMGKFEAPSQVDCARYTIEEGHHHHHH”, the protein production is reported as “not failed”. With “MSLTLYQKKSKMIGIIIPDLNNRFYAQIIDGIQEVIQKEGYTALISFSTNSDVKKYQNAIINFENNNVDGIITSAFTIPPNFHLNTPLVMYDSANINDDIVRIVSNNTKGGKESIKLLSKKIEKVLIQHWPLSLPTIRERIEAMTAEASKLKIDYLLEETPENNPYISAQSALNKSNQFDAIITVNDLYAAEIIKEAKRRNLKIPDDFQLVGYDNNILCGYTSPTISTIDQNPKLIGQTAAHRLLDLMSGNNSTRNSIIDVLPIKRDSTEGHHHHHH” the protein production was “not failed”. In the case of “MSLTNTKTGFSVKDILDLPDTNDEEGSITGTEEDTEGSEATKTPGVLVQSPLENVQNLPLKNPFYDNSDNPYTRWLATTDSIQYSLHGLSANSQDTSAKSPEPSADESPDNDKETSSNGSDSGKKQKEGALFQGTNLRTRAPV”, the protein production is reported as “failed”. For “MSLTSLIIAEDQNMLRQAMVQLIKLHGDFEILADTDNGLDAMKLIEEYNPNVVILDIEMPGMTGLEVLAEIRKKHLNIKVIIVTTFKRPGYFEKAVVNDVDAYVLKERSIEELVETINKVNNGEKEGHHHHHH”, the protein production was “not failed”. With “MSLTTFLFRNGALLDPDHPDLLQGFEILIEDGFIREVSDKPIKSSNAHVIDVKGKTIMPGLIDLHVHVVAIEFNLPRVATLPNVLVTLRAVPIMRAMLRRGFTTVRDAGGAGYPFKQAVESGLVEGPRLFVSGRALSQTGGHADPRARSDYMPPDSPCGCCVRVGALGRVADGVDEVRRAVREELQMGADQIKIMASGGVASPTDPVGVFGYSEDEIRAIVAEAQGRGTYVLAHAYTPAAIARAVRCGVRTIEHGNLIDDETARLVAEHGAYVVPTLVTYDALASEGEKYGLPPESIAKIADVHGAGLHSIEIMKRAGVKMGFGTDLLGEAQRLQSDEFRILAEVLSPAEVIASATIVSAEVLGMQDKLGRIVPGAHADVLVVDGNPLKSVDCLLGQGEHIPLVMKDGRLFVNELEGHEGHHHHHH” the protein production was “not failed”. With “MSLYKRKSKLIGLLLPDMSNPFFTLIARGVEDVALAHGYQVLIGNSDNDIKKAQGYLATFVSHNCTGMISTAFNENIIENTLTDHHIPFVFIDRINNEHNGISTNHFKGGQLQAEVVRKGKGKNVLIVHENLLIDAFHQRVQGIKYILDQQRIDYKMLEATLLDNDKKFIDLIKELSIDSIICSNDLLAINVLGIVQRYHFKVPAEIQIIGYDNIPFSEMTYPQITTIDQSAYHLGEIAVSQLLGLNTDNLTNNHKQLALTVKHRGSTREGHHHHHH” the protein production was “not failed”. With “MSMLGIKWKLHGNGKSIRPGHVVAPDERLAWPLTIGIGMQHVVAMFGATFLVPIITGMPPATTLLFSGIGTLLFLVITKGRVPSYLGSSFAFIAPIMASQQQYGVSGALGGVVLAGVVLALIGAVVQKFGAEWINRLMPPIVTGAIVALIGLNLAPAAKANFDAAPVTALITLVTIILVSVLFRGILGRLSILVGVVVGYLVAMMRGEVSYEKMDAAAWVGLPLFQTPEFHIGVVGLFVPVVLVLVAENVGHVKSVAAMTGQNLDGVSGRALMADGAATVLAGFGGGSGTTTYAENIGVMAATKVYSTAAYWVAGVFAILLSFSPKFGELIATVPPGVLGGAATMLYGMIGVLGVKIWVQNKVNFSNPINLTTAAVALIIGIADYAWTIGELKFTGIALGSAAALVIYHGMKGLAHWRGTVAEPETETAGLPPAVKSAMNAAAKRGGKKGK” the protein production was “failed”. For “MSMPNHPNLTTADAKKILNKFNCLDIAPILKPSEKESVRRALILITKLSDYQILGICADTADEGLLAMKTYSHALGYEVPIDLPVVEGPVYIKLNGKNGLCYLDSYAGHHRGVLVSCQSYYEGGINEMYGHLPLDLFV”, the protein production was “not failed”.
